{"source": "paper PMC4567411", "about": "(Nature, 2015)", "binders": {"B1": {"name": "biotin-MYC3(5-242) (domain or fragment, Arabidopsis, UniProt Q9FIP9 5-242, looked up)", "chain": "TSSINFLTSDDDASAAAMEAFIGTNHHSSLFPPPPQQPPQPQFNEDTLQQRLQALIESAGENWTYAIFWQISHDFDSSTGDNTVILGWGDGYYKGEEDKEKKKNNTNTAEQEHRKRVIRELNSLISGGIGVSDESNDEEVTDTEWFFLVSMTQSFVNGVGLPGESFLNSRVIWLSGSGALTGSGCERAGQGQIYGLKTMVCIATQNGVVELGSSEVISQSSDLMHKVNNLFNFNNGGG", "modifications": "biotin (site not stated)"}, "B2": {"name": "biotin-MYC3(44-238) (domain or fragment, Arabidopsis, UniProt Q9FIP9 44-238, looked up)", "chain": "QPQFNEDTLQQRLQALIESAGENWTYAIFWQISHDFDSSTGDNTVILGWGDGYYKGEEDKEKKKNNTNTAEQEHRKRVIRELNSLISGGIGVSDESNDEEVTDTEWFFLVSMTQSFVNGVGLPGESFLNSRVIWLSGSGALTGSGCERAGQGQIYGLKTMVCIATQNGVVELGSSEVISQSSDLMHKVNNLFNFN", "modifications": "biotin (site not stated)"}, "B3": {"name": "His6Sumo-MED25(540-680) (domain or fragment, Arabidopsis, UniProt Q7XYY2 540-680, looked up)", "chain": "QLSQPSSGAMQTSQSKYVKVWEGNLSGQRQGQPVLITRLEGYRSASASDSLAANWPPTMQIVRLISQDHMNNKQYVGKADFLVFRAMSQHGFLGQLQDKKLCAVIQLPSQTLLLSVSDKACRLIGMLFPGDMVVFKPQIPN"}}, "assay_in_all_cases": "AlphaScreen or HTRF", "key": {"[1]": {"molecular_target": "T1, His6Sumo-MED25(407-680) (Arabidopsis, UniProt Q7XYY2 407-680)", "T1 sequence (looked up)": "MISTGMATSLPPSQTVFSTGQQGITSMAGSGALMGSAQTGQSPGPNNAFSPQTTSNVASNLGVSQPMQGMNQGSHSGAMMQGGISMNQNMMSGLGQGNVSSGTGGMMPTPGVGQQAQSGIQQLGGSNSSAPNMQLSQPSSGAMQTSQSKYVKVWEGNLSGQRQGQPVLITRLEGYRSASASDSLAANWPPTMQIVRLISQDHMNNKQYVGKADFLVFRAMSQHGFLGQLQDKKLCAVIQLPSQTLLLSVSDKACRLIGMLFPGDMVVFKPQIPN"}, "[2]": {"molecular_target": "B2"}, "[3]": {"molecular_target": "B1"}, "[4]": {"molecular_target": "B2", "remark": "listed apart in the source"}}}
{"binder": "B1", "values": [{"measurement": "binding result", "setting": "[1]", "result": "binds"}]}
{"binder": "B2", "values": [{"measurement": "binding result", "setting": "[1]", "result": "binds"}]}
{"binder": "SVPQARKASLARFLEKRKERLM (peptide, UniProt Q8W4J8 218-239, looked up)", "note": "[Jas22^JAZ9 peptide]", "values": [{"measurement": "IC50", "setting": "[2]", "result": "~420", "unit": "nM"}, {"measurement": "IC50", "setting": "[3]", "result": "~490", "unit": "nM"}]}
{"binder": "B3", "values": [{"measurement": "binding result", "setting": "[4]", "result": "binds"}]}
